Substitutions are numbered along the chain they refer to.

Our source for the Kd values is publication PMC8809517, “Cofactor-independent RNA editing by a synthetic S-type PPR protein”.

Assay in all cases: high-throughput RNA pulldown from lysate on Ni-NTA beads; HRP: 50 mM Tris pH 8, 150 mM NaCl, 1 mM beta-mercaptoethanol, 50 ug/ml BSA, 3 ug/ml yeast RNA, 0.5% heparin; ITC and FP: Tris pH 8, 200 mM KCl, 5% glycerol; MST: 50 mM Tris pH 8, 200 mM NaCl, 1 mM DTT, BSA, heparin, 0.05% Tween 20
Common to all, as to settings: tags: N-terminal His-eGFP

Series [1] has as its target T1, GFP-9S library array, motif 4 ND D124P (synthetic construct, D124P).
T1 chain: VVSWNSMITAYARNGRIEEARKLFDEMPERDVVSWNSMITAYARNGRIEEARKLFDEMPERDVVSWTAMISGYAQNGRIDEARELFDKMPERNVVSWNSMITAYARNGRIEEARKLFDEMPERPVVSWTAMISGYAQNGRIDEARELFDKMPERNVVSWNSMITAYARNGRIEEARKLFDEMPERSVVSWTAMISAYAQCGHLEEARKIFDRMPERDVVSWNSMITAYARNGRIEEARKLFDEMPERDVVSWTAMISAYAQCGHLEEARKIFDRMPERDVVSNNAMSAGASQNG

Series [2] deals with T2, GFP-9S library array, motif 4 ND N98I;D124L (synthetic construct, N98I;D124L).
T2 chain: T1 chain with N98I, P124L

Series [3] deals with T3, GFP-9S library array, motif 4 ND N98Y;D124M (synthetic construct, N98Y;D124M).
T3 chain: T1 chain with N98Y, P124M

In series [4] the target is T4, GFP-9S library array, motif 4 ND N98E;D124T (synthetic construct, N98E;D124T).
T4 chain: T1 chain with N98E, P124T

In series [5] the target is T5, GFP-9S library array, motif 4 ND D124T (synthetic construct, D124T).
T5 chain: T1 chain with P124T

B1: Cy5-rpoA (ssRNA)
RNA: AUUACACGUGA
Consider B1, for which the Kd (in general, the free concentration of one partner at which half of the binding sites on the other are occupied at equilibrium, for simple one-to-one binding) amounted to 123 nM in series [1] (label: 5' Cy5); 106 nM in series [2] (label: 5' Cy5); 40.8 nM in series [3] (label: 5' Cy5); 130 nM in series [4] (label: 5' Cy5); 8.35 nM in series [5] (label: 5' Cy5).

B2: IR-rpoA-A (ssRNA)
RNA: AUUAAACGUGA
Take B2: the dissociation constant Kd in series [1] (label: 5' IRDye 800CW) is 290 nM; in series [2] (label: 5' IRDye 800CW) it was 343 nM; in series [3] (label: 5' IRDye 800CW) it was 124 nM; in series [4] (label: 5' IRDye 800CW), 339 nM; in series [5] (label: 5' IRDye 800CW), 215 nM.

B3: IR-rpoA-U (ssRNA)
RNA: AUUAUACGUGA
Take B3: the Kd in series [1] (label: 5' IRDye 800CW) came to 154 nM; in series [2] (label: 5' IRDye 800CW), 202 nM; in series [3] (label: 5' IRDye 800CW), 154 nM; in series [4] (label: 5' IRDye 800CW) it was 476 nM; in series [5] (label: 5' IRDye 800CW), 24.6 nM.

B4: Cy5-rpoA-G (ssRNA)
RNA: AUUAGACGUGA
As for B4, the Kd in series [1] (label: 5' Cy5) amounted to 158 nM; in series [2] (label: 5' Cy5), 128 nM; in series [3] (label: 5' Cy5), 36.2 nM; in series [4] (label: 5' Cy5) it was 123 nM; in series [5] (label: 5' Cy5), 291 nM.
